Measurements taken from patent US20230174655A1 (published 2023).
Where a chain is given by its changes, count along the chain named. Numbers in names are those of the source. Each block holds one binder with its values, some of them ahead of it.

Columns and labels:
[1] = biological target: T1, FcγRIIb extracellular domain with C-terminal His tag (human, UniProt P31994 43-217); assay: SPR (Biacore), antibody captured, FcgR analyte
T1 construct: extracellular domain; also called FcRIIb; FcgRIIb; not shown: His tag at the C terminus
T1 sequence (looked up): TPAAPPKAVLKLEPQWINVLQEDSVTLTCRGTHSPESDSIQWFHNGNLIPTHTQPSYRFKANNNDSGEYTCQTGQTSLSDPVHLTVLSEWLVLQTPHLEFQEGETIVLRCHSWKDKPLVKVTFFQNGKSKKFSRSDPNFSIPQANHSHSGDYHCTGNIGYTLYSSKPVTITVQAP
From the text: (§1) In the table, SEQ ID NO refers to the SEQ ID NO of the H chain of the evaluated variant, and alteration refers to the alteration introduced into IL6R-B3 (SEQ ID NO: 40). […] Furthermore, KD(IIaR)/KD(IIb) and KD(IIaH)/KD(IIb) in the table respectively represent the value obtained by dividing the KD value of each variant for FcγRIIaR by the KD value of each variant for FcγRIIb, and the value obtained by dividing the KD value of each variant for FcγRIIaH by the KD value of each variant for FcγRIIb. KD(IIb) of the parent polypeptide/KD(IIb) of the altered polypeptide refers to the value obtained by dividing the KD value of the parent polypeptide for FcγRIIb by the KD value of each variant for FcγRIIb.
(§2) Kinetic analyses for calculating the KD values of each altered antibody for FcγR were performed according to the following method. First, antibodies of interest were captured onto the above-mentioned sensor chips, and an Fcγ receptor diluted with the running buffer was allowed to interact. The Biacore™ Evaluation Software was used to globally fit the measured results to the obtained sensorgram using the 1:1 Langmuir binding model, and the association rate constant ka (L/mol/s) and the dissociation rate constant kd (1/s) were calculated; and from those values the dissociation constants KD (mol/L) were calculated.

[2] = biological target: T2, FcγRIIa type R extracellular domain with C-terminal His tag (human, UniProt P12318 34-217); assay: SPR (Biacore), Reference Example 2
T2 construct: extracellular domain; also called FcγRIIa R; FcγRIIaR
T2 sequence (looked up): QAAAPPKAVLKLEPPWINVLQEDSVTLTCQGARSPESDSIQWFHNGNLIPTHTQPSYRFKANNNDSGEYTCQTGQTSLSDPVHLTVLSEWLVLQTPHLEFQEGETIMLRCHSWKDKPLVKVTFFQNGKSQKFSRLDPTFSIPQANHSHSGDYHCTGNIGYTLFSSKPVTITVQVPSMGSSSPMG
From the text: Furthermore, KD(IIaR)/KD(IIb) and KD(IIaH)/KD(IIb) in the table respectively show the value obtained by dividing the KD value of each variant for FcγRIIaR by the KD value of each variant for FcγRIIb, and the value obtained by dividing the KD value of each variant for FcγRIIaH by the KD value of each variant for FcγRIIb. KD(IIb) of the parent polypeptide/KD(IIb) of the altered polypeptide refers to a value obtained by dividing the KD value of the parent polypeptide for FcγRIIb by the KD value of each variant for FcγRIIb.
as §2

[3] = biological target: T3, FcγRIIIa type V extracellular domain with C-terminal His tag (human, UniProt P08637 17-208); assay: SPR (Biacore), antibody captured, FcgR analyte
T3 construct: extracellular domain; also called FcIIIaV; FcgRIIIaV; not shown: His tag at the C terminus
From the text: as §1, §2

[4] = biological target: T4, FcγRIIa type R extracellular domain with C-terminal His tag (human, UniProt P12318 34-217); assay: SPR (Biacore), antibody captured, FcgR analyte
T4 chain: T2 sequence (looked up)
From the text: as §1, §2

[5] = biological target: FcγRIIa type R extracellular domain with C-terminal His tag (human, UniProt P12318 34-217); assay: SPR (Biacore), antibody captured on chip, FcγR extracellular domain as analyte
From the text: as §1, §2

T3 sequence (P08637 17-208 F176V): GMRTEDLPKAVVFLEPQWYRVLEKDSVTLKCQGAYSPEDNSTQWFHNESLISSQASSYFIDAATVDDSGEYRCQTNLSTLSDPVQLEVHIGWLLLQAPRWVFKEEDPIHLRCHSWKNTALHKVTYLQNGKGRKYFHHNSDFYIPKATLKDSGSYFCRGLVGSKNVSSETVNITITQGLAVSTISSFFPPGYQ

B1: IL6R-2B251/IL6R-L (antibody, human IgG1, kappa)
heavy: QVQLQESGPGLVKPSETLSLTCAVSGHSISHDHAWSWVRQPPGEGLEWIGFISYSGITNYNPSLQGRVTISRDNSKNTLYLQMNSLRAEDTAVYYCARSLARTTAMDYWGEGTLVTVSSASTKGPSVFPLAPSSKSTSGGTAALGCLVKDYFPEPVTVSWNSGALTSGVHTFPAVLQSSGLYSLSSVVTVPSSSLGTQTYICNVNHKPSNTKVDKKVEPKSCDKTHTCPPCPAPDLLGGDSVFLFPPKPKDTLMISRTPEVTCVVVDVSHEDPEVKFNWYVDGVEVHNAKTKPREEQDNSTYRVVSVLTVLHQDWLNGKEYKCKVSNKALPAPIEKTISKAKGQPREPQVYTLPPSRDELTKNQVSLTCLVKGFYPSDIAVEWESNGQPENNYKTTPPVLDSDGSFFLYSKLTVDKSRWQQGNVFSCSVMHEALHNHYTQESLSLSP
light: not shown
notes: alteration printed: B233D/P238D/Y296D; also called ILGR-2B261/IL6R-L; copies: 2 + 2
Kd [1]: 10 µM

B2: IL6R-PD079/IL6R-L (antibody, human IgG1, kappa)
heavy: B1 heavy with D235E, G239A, M254Y, D298Y, N436Y, E441K
light: not shown
notes: H chain: IL6R-F11 with P238D/G237A (EU numbering); also called P238D/G237A; copies: 2 + 2
Kd [2]: 32 µM

B3: IL6R-BF195/IL6R-L (antibody, human IgG1, kappa)
heavy: B1 heavy with L236Y, G239D, H270D, P273G, K328A, A332K
light: not shown
notes: copies: 2 + 2
Kd [1]: 50 µM | Kd [3]: 3.1 µM | Kd [4]: 0.91 µM

B7: IL6R-BF085/IL6R-L (H chain SEQ ID NO 72) (antibody, human IgG1, kappa)
heavy: B1 heavy with D235E, D298Y, K328A, A332K
light: not shown
notes: alteration printed: P238D/K326A/A330K; also called IL6R-BF086/IL6R-L; copies: 2 + 2
Kd [4]: 0.097 µM

B10: IL6R-BF185/IL6R-L (H chain SEQ ID NO 98) (antibody, human IgG1, kappa)
heavy: B1 heavy with L236Y, P273G, D298Y, K328A, A332K
light: not shown
notes: alteration printed: B233D/L234Y/P238D/P271G/K326A/A330K; also called IL6R-BF138/IL6R-L; copies: 2 + 2
Kd [4]: 26 µM

B11: IL6R-BF212/IL6R-L (antibody, human IgG1, kappa)
heavy: B1 heavy with H270D, P273G, A332R
light: not shown
notes: Anti-IL-6 receptor IgG1 Fc variant; 'B233D' is read as E233D
Kd [5]: 0.035 µM

B12: IL6R-BF186/IL6R-L (antibody, human IgG1, kappa)
heavy: B1 heavy with L236Y, G239D, P273G, K328A, A332K
light: not shown
notes: alteration printed: B233D/L234Y/G237D/P238D/P271G/Y298D/K326A/A330K; copies: 2 + 2
Kd [4]: 0.95 µM

B13: IL6R-BF209/IL6R-L (antibody, human IgG1, kappa)
heavy: B1 heavy with D235E, G239D, H270D, P273G, D298Y, K328A, A332R
light: not shown
notes: Anti-IL-6 receptor IgG1 Fc variant
Kd [5]: 12 µM

B15: IL6R-BF203/IL6R-L (antibody, human IgG1, kappa)
heavy: B1 heavy with D235E, G239D, P273G, D298Y, A332R
light: not shown
notes: copies: 2 + 2
Kd [4]: 0.99 µM

B16: IL6R-BF206/IL6R-L (antibody, human IgG1, kappa)
heavy: B1 heavy with P273G, D298Y, A332R
light: not shown
notes: alteration printed: BB233D/P238D/P271G/A330R; copies: 2 + 2
Kd [3]: 6.9 µM | Kd [4]: 3.1 µM

B18: IL6R-PD095/IL6R-L (antibody, human IgG1, kappa)
heavy: B1 heavy with D235E, G239Y, M254Y, D298Y, N436Y, E441K
light: not shown
notes: H chain: IL6R-F11 with P238D/G237Y (EU numbering); also called P238D/G237Y; copies: 2 + 2
Kd [2]: 7.9 µM

B20: IL6R-BF200/IL6R-L (antibody, human IgG1, kappa)
heavy: B1 heavy with L236Y, G239D, P273G, D298Y, K328D, A332R
light: not shown
notes: copies: 2 + 2
Kd [4]: 0.63 µM

Results, then the binder that gave them:

Kd [4]: 2.8 µM
B4: IL6R-BF192/IL6R-L (antibody, human IgG1, kappa)
heavy: B1 heavy with H270D, P273G, A332K
light: not shown
notes: alteration printed: B233D/P238D/H268D/P271G/Y296D/A330K; copies: 2 + 2

Kd [4]: 3 µM
B5: IL6R-BF191/IL6R-L (antibody, human IgG1, kappa)
heavy: B1 heavy with H270D, P273G, D298Y, K328A, A332K
light: not shown
notes: alteration printed: B233D/P238D/H268D/P271G/K326A/A330K; copies: 2 + 2

Kd [3]: 5.1 µM | Kd [4]: 0.03 µM
B6: IL6R-BF196/IL6R-L (antibody, human IgG1, kappa)
heavy: B1 heavy with D235E, L236Y, H270D, P273G, D298Y, K328A, A332K
light: not shown
notes: alteration printed: L234Y/P236D/H258D/P271G/K326A/A330K; copies: 2 + 2

Kd [4]: 69 µM
B8: IL6R-BF176/IL6R-L (antibody, human IgG1, kappa)
heavy: B1 heavy with D298Y, K328D, A332K
light: not shown
notes: alteration printed: B233D/P238D/K326D/A330K; also called IL6R-BF175/IL6R-L; copies: 2 + 2

Kd [3]: 6.7 µM
B9: IL6R-BF084/IL6R-L (antibody, human IgG1, kappa)
heavy: B1 heavy with D235E, D298Y, V325M, A332K
light: not shown
notes: alteration printed: 9238D/Y325M/A330K; copies: 2 + 2

Kd [4]: 0.83 µM
B14: IL6R-BF147/IL6R-L (antibody, human IgG1, kappa)
heavy: B1 heavy with D235E, L236Y, G239D, D298Y, K328A, A332K
light: not shown
notes: alteration printed: L234Y/G237D/P238D/K326A/A330K; copies: 2 + 2

Kd [2]: 7.2 µM
B17: IL6R-PD094/IL6R-L (antibody, human IgG1, kappa)
heavy: B1 heavy with D235E, G239W, M254Y, D298Y, N436Y, E441K
light: not shown
notes: H chain: IL6R-F11 with P238D/G237W (EU numbering); also called P238D/G237W; copies: 2 + 2

Kd [2]: 14 µM
B19: IL6R-PD082/IL6R-L (antibody, human IgG1, kappa)
heavy: B1 heavy with D235E, G239F, M254Y, D298Y, N436Y, E441K
light: not shown
notes: H chain: IL6R-F11 with P238D/G237F (EU numbering); also called P238D/G237F; copies: 2 + 2

Kd [4]: 4.2 µM
B21: IL6R-BF085/IL6R-L (H chain SEQ ID NO 71) (antibody, human IgG1, kappa)
heavy: B1 heavy with D235E, G239D, D298Y, A332K
light: not shown
notes: alteration printed: G237D/P238D/A330K; also called IL6R-BF065/IL6R-L; copies: 2 + 2
